# Where a chain is given by its changes, count along the chain named.
# T1: FcγRIIb extracellular domain, C-terminal His tag (human, UniProt P31994 43-217)
# T1 construct: extracellular domain; also called 2b
# T1 sequence: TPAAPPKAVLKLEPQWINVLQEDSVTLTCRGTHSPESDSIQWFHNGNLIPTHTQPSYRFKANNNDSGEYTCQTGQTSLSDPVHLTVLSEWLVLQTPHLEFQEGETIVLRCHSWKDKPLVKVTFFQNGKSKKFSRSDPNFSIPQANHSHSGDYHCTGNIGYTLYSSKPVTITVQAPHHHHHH
# T2: FcγRIIa(R) extracellular domain, C-terminal His tag (human, UniProt P12318 34-217)
# T2 construct: extracellular domain; Allotype R131; also called 2aR
# T2 sequence: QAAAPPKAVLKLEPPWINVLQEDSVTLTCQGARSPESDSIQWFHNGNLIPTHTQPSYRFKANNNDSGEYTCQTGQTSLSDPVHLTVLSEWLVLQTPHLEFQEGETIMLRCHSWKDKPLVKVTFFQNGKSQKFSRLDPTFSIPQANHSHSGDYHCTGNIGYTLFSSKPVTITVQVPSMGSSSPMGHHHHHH
# T3: FcγRIIa(H) extracellular domain, C-terminal His tag (human, UniProt P12318 34-217)
# T3 construct: extracellular domain; Allotype H131; also called 2aH
# T3 sequence: T2 sequence with R134H
# B1: GpH7-A5/GpH7-B3 variant L328_04F/GpL16-k0 (antibody, human IgG1, kappa)
# heavy 1: not shown
# heavy 2: not shown
# light: DIVMTQSPLSLPVTPGEPASISCQASESLVHSNRNTYLHWYLQKPGQSPQLLIYKVSNRFSGVPDRFSGSGSGTDFTLKISRVEAEDVGVYYCSQNTHVPPTFGQGTKVEIERTVAAPSVFIFPPSDEQLKSGTASVVCLLNNFYPREAKVQWKVDNALQSGNSQESVTEQDSKDSTYSLSSTLTLSKADYEKHKVYACEVTHQGLSSPVTKSFNRGEC
# notes: He Ab: anti-glypican 3 IgG1 heterodimer, only the GpH7-B3 chain mutated; position in EU numbering; also called He Ab
# B2: GpH7-A5/GpH7-B3 variant P331_20W/GpL16-k0 (antibody, human IgG1, kappa)
# heavy 1: not shown
# heavy 2: not shown
# light: B1 light
# notes: as for B1
# B3: GpH7-A5/GpH7-B3 variant P331_04F/GpL16-k0 (antibody, human IgG1, kappa)
# heavy 1: not shown
# heavy 2: not shown
# light: B1 light
# notes: as for B1
# B4: GpH7-A5/GpH7-B3 variant L328_19Q/GpL16-k0 (antibody, human IgG1, kappa)
# heavy 1: not shown
# heavy 2: not shown
# light: B1 light
# notes: as for B1
# B5: GpH7-A5/GpH7-B3 variant P331_13S/GpL16-k0 (antibody, human IgG1, kappa)
# heavy 1: not shown
# heavy 2: not shown
# light: B1 light
# notes: as for B1
# B6: GpH7-A5/GpH7-B3 variant L328_07I/GpL16-k0 (antibody, human IgG1, kappa)
# heavy 1: not shown
# heavy 2: not shown
# light: B1 light
# notes: as for B1
# B7: GpH7-A5/GpH7-B3 variant N325_09D/GpL16-k0 (antibody, human IgG1, kappa)
# heavy 1: not shown
# heavy 2: not shown
# light: B1 light
# notes: as for B1
# B8: GpH7-A5/GpH7-B3 variant L328_06M/GpL16-k0 (antibody, human IgG1, kappa)
# heavy 1: not shown
# heavy 2: not shown
# light: B1 light
# notes: as for B1
# B9: GpH7-A5/GpH7-B3 variant P331_07I/GpL16-k0 (antibody, human IgG1, kappa)
# heavy 1: not shown
# heavy 2: not shown
# light: B1 light
# notes: as for B1
# B10: GpH7-A5/GpH7-B3 variant P331_06M/GpL16-k0 (antibody, human IgG1, kappa)
# heavy 1: not shown
# heavy 2: not shown
# light: B1 light
# notes: as for B1
# B11: GpH7-A5/GpH7-B3 variant L328_16H/GpL16-k0 (antibody, human IgG1, kappa)
# heavy 1: not shown
# heavy 2: not shown
# light: B1 light
# notes: as for B1
# B12: GpH7-A5/GpH7-B3 variant P329_10E/GpL16-k0 (antibody, human IgG1, kappa)
# heavy 1: not shown
# heavy 2: not shown
# light: B1 light
# notes: as for B1
# B13: GpH7-A5/GpH7-B3 variant P331_19Q/GpL16-k0 (antibody, human IgG1, kappa)
# heavy 1: not shown
# heavy 2: not shown
# light: B1 light
# notes: as for B1
# B14: GpH7-A5/GpH7-B3 variant P331_15Y/GpL16-k0 (antibody, human IgG1, kappa)
# heavy 1: not shown
# heavy 2: not shown
# light: B1 light
# notes: He Ab: anti-glypican 3 IgG1 heterodimer, only the GpH7-B3 chain mutated; position in EU numbering; also called P331_I5Y; He Ab
# B15: GpH7-A5/GpH7-B3 variant P331_03V/GpL16-k0 (antibody, human IgG1, kappa)
# heavy 1: not shown
# heavy 2: not shown
# light: B1 light
# notes: as for B1
# B16: GpH7-A5/GpH7-B3 variant P331_14T/GpL16-k0 (antibody, human IgG1, kappa)
# heavy 1: not shown
# heavy 2: not shown
# light: B1 light
# notes: as for B1
# B17: GpH7-A5/GpH7-B3 variant L328_14T/GpL16-k0 (antibody, human IgG1, kappa)
# heavy 1: not shown
# heavy 2: not shown
# light: B1 light
# notes: as for B1
# B18: GpH7-A5/GpH7-B3 variant L328_18N/GpL16-k0 (antibody, human IgG1, kappa)
# heavy 1: not shown
# heavy 2: not shown
# light: B1 light
# notes: as for B1
# B19: GpH7-A5/GpH7-B3 variant P331_16H/GpL16-k0 (antibody, human IgG1, kappa)
# heavy 1: not shown
# heavy 2: not shown
# light: B1 light
# notes: as for B1
# B20: GpH7-A5/GpH7-B3 variant P331_10E/GpL16-k0 (antibody, human IgG1, kappa)
# heavy 1: not shown
# heavy 2: not shown
# light: B1 light
# notes: as for B1
# B21: GpH7-A5/GpH7-B3 variant P331_18N/GpL16-k0 (antibody, human IgG1, kappa)
# heavy 1: not shown
# heavy 2: not shown
# light: B1 light
# notes: as for B1
# B22: GpH7-A5/GpH7-B3 variant P329_09D/GpL16-k0 (antibody, human IgG1, kappa)
# heavy 1: not shown
# heavy 2: not shown
# light: B1 light
# notes: as for B1
# B23: GpH7-A5/GpH7-B3 variant P331_11K/GpL16-k0 (antibody, human IgG1, kappa)
# heavy 1: not shown
# heavy 2: not shown
# light: B1 light
# notes: as for B1
# B24: GpH7-A5/GpH7-B3 variant L328_15Y/GpL16-k0 (antibody, human IgG1, kappa)
# heavy 1: not shown
# heavy 2: not shown
# light: B1 light
# notes: as for B1
# B25: GpH7-A5/GpH7-B3 variant L328_13S/GpL16-k0 (antibody, human IgG1, kappa)
# heavy 1: not shown
# heavy 2: not shown
# light: B1 light
# notes: as for B1
# B26: GpH7-A5/GpH7-B3 variant N325_13S/GpL16-k0 (antibody, human IgG1, kappa)
# heavy 1: not shown
# heavy 2: not shown
# light: B1 light
# notes: as for B1
# B27: GpH7-A5/GpH7-B3 variant P331_08L/GpL16-k0 (antibody, human IgG1, kappa)
# heavy 1: not shown
# heavy 2: not shown
# light: B1 light
# notes: as for B1
# B28: GpH7-A5/GpH7-B3 variant P331_09D/GpL16-k0 (antibody, human IgG1, kappa)
# heavy 1: not shown
# heavy 2: not shown
# light: B1 light
# notes: as for B1
# B29: GpH7-A5/GpH7-B3 variant P331_02A/GpL16-k0 (antibody, human IgG1, kappa)
# heavy 1: not shown
# heavy 2: not shown
# light: B1 light
# notes: as for B1
# B30: GpH7-A5/GpH7-B3 variant N325_16H/GpL16-k0 (antibody, human IgG1, kappa)
# heavy 1: not shown
# heavy 2: not shown
# light: B1 light
# notes: as for B1
# Molecular target: T1, FcγRIIb extracellular domain, …
# Test: SPR (Biacore); binding relative to GpH7-A5/GpH7-B3/GpL16-k0 x100;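 further: antibodies captured on a chip surface, soluble FcγR flowed over in HBS-EP+ running buffer at 25 °C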
# Procedure: (§1) The antibody of interest was analyzed for its interaction with FcγR using a BiaCore™ T100, BiaCore™ A100, or BiaCore™ 4000 surface plasmon resonance system (GE Healthcare Japan Corp.). The running buffer used was HBS-EP+ (GE Healthcare Japan Corp.). The assay temperature was set to 25° C. The sensor chips used were: a chip prepared by immobilizing antigenic peptides onto Series S Sensor Chip CM5 (GE Healthcare Japan Corp.) by the amine coupling method; a chip prepared by immobilizing antigenic peptides biotinylated in advance onto Series S Sensor Chip SA (certified) (GE Healthcare Japan Corp.) through their interaction; a chip prepared by immobilizing protein L (ACTIGEN, BioVision, Inc.) onto Series S Sensor Chip CM5 (GE Healthcare Japan Corp.); and a chip prepared by immobilizing protein A/G (Thermo Fisher Scientific K.K.) onto Series S Sensor Chip CM5 (GE Healthcare Japan Corp.). The antibody of interest was captured onto any of these chips and allowed to interact with FcγR diluted with a running buffer. The antibody captured on the chip was washed off through the reaction of 10 mM glycine-HCl (pH 1.5) to regenerate the chip, which was repetitively used.
row,Binder,He/Con 2b [%]
1,B1,273
2,B2,123
3,B3,122
4,B4,131
5,B5,107
6,B6,200
7,B7,139
8,B8,176
9,B9,127
10,B10,113
11,B11,100
12,B12,59.5
13,B13,94
14,B14,127
15,B15,132
16,B16,111
17,B17,176
18,B18,101
19,B19,128
20,B20,128
21,B21,110
22,B22,60.4
23,B23,93.9
24,B24,240
25,B25,186
26,B26,198
27,B27,106
28,B28,104
29,B29,110
30,B30,78.5

# Molecular target: T4, FcγRIIIa extracellular domain, C-terminal His tag (human, UniProt P08637 17-208)
# T4 construct: extracellular domain; also called 3a
# Test: as above
# Procedure: as §1
# T4 sequence (P08637 other isoform, or with tags, fused parts or gaps): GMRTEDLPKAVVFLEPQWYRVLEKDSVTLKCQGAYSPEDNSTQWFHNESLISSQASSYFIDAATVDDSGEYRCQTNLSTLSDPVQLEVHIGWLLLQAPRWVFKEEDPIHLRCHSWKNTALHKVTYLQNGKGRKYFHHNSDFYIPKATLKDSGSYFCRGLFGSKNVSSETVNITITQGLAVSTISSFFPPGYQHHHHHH
row,Binder,He/Con 3a [%]
1,B1,81.5
2,B2,71.9
3,B3,70.7
4,B4,83.4
5,B5,80.9
6,B6,86.4
7,B7,53
8,B8,80.8
9,B9,60.4
10,B10,68.4
11,B11,55.9
12,B12,52.7
13,B13,73.9
14,B14,74.9
15,B15,66.9
16,B16,67.8
17,B17,77.4
18,B18,51.1
19,B19,73.4
20,B20,68.7
21,B21,67.1
22,B22,52.5
23,B23,61.8
24,B24,70.2
25,B25,73.7
26,B26,71.9
27,B27,66
28,B28,71.6
29,B29,82.5
30,B30,68

# Molecular target: T2, FcγRIIa(R) extracellular domain, …
# Test: as above
# Procedure: as §1
row,Binder,He/Con 2aR [%]
1,B1,177
2,B2,109
3,B3,110
4,B4,115
5,B5,104
6,B6,160
7,B7,111
8,B8,148
9,B9,109
10,B10,105
11,B11,106
12,B12,72.7
13,B13,96.1
14,B14,112
15,B15,114
16,B16,104
17,B17,153
18,B18,76.4
19,B19,113
20,B20,112
21,B21,104
22,B22,76
23,B23,94.6
24,B24,174
25,B25,150
26,B26,137
27,B27,101
28,B28,101
29,B29,105
30,B30,85.3

# Molecular target: T3, FcγRIIa(H) extracellular domain, …
# Test: as above
# Procedure: as §1
row,Binder,He/Con 2aH [%]
1,B1,84.9
2,B2,85.8
3,B3,87.7
4,B4,103
5,B5,94
6,B6,111
7,B7,55.3
8,B8,122
9,B9,80.1
10,B10,88.1
11,B11,84.5
12,B12,57.6
13,B13,91.6
14,B14,89
15,B15,85.4
16,B16,86.5
17,B17,138
18,B18,80.6
19,B19,87.5
20,B20,90.1
21,B21,87.2
22,B22,57.1
23,B23,83.7
24,B24,106
25,B25,146
26,B26,83
27,B27,85.9
28,B28,93.6
29,B29,93.9
30,B30,50

# Molecular target: T5, FcγRIa extracellular domain, C-terminal His tag (human, UniProt P12314 16-292)
# T5 construct: extracellular domain; also called 1a
# Test: as above
# Procedure: as §1
# T5 sequence (P12314 other isoform, or with tags, fused parts or gaps): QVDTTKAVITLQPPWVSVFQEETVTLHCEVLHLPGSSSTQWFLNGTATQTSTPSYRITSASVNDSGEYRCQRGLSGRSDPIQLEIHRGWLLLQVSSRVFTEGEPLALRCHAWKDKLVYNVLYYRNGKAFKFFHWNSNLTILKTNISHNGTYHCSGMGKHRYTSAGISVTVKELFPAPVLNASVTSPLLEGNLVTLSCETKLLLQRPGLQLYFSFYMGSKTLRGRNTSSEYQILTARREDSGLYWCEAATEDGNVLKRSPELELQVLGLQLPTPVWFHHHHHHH
row,Binder,He/Con 1a [%]
1,B1,100
2,B2,107
3,B3,108
4,B4,104
5,B5,108
6,B6,102
7,B7,105
8,B8,101
9,B9,106
10,B10,106
11,B11,98.5
12,B12,81.4
13,B13,108
14,B14,109
15,B15,104
16,B16,102
17,B17,103
18,B18,101
19,B19,105
20,B20,108
21,B21,106
22,B22,80.1
23,B23,100
24,B24,104
25,B25,101
26,B26,102
27,B27,105
28,B28,109
29,B29,105
30,B30,99.9

# From patent US20260167699A1 (Chugai, published 2026)
